Among the targets are MAPK2 (h) (human) (UniProt P28482); MINK (h) (human) (UniProt Q8N4C8); MSSK1 (h) (human) (UniProt Q9UPE1); Met(D1246N) (h) (human) (UniProt P08581); PDGFRα (h) (human) (UniProt P16234); PKCδ (h) (human) (UniProt Q05655); cKit(D816H) (h) (human) (UniProt P10721).
Assay in all cases: cell-based or functional assay
Test [1] deals with Calcium/Calmodulin-Dependent Protein Kinase I (human) (UniProt Q14012).
The next test deals with T1, IKKα (h) (human) (UniProt O15111).
T1 sequence (looked up): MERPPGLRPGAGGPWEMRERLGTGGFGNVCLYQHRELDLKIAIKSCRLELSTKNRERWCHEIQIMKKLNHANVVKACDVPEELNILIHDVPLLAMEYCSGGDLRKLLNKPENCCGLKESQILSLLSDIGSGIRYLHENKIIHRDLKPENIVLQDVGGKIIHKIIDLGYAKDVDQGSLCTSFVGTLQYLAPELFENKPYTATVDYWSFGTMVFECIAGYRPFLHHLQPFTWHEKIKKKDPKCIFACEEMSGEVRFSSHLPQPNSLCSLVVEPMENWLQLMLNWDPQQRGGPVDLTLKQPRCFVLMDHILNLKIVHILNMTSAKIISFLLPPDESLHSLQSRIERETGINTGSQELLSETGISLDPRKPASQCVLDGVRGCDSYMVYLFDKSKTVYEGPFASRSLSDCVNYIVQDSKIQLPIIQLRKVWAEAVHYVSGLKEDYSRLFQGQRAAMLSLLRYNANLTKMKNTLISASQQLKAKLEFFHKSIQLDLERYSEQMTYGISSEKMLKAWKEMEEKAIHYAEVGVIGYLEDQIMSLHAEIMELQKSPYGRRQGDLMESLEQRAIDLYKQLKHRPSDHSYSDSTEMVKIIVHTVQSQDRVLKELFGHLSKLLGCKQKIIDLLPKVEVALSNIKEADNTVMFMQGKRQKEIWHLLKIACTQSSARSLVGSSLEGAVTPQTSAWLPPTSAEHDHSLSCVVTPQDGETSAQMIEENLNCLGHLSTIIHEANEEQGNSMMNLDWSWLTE

For the next test, the target named is T2, IKKβ (h) (human) (UniProt O14920).
T2 sequence (looked up): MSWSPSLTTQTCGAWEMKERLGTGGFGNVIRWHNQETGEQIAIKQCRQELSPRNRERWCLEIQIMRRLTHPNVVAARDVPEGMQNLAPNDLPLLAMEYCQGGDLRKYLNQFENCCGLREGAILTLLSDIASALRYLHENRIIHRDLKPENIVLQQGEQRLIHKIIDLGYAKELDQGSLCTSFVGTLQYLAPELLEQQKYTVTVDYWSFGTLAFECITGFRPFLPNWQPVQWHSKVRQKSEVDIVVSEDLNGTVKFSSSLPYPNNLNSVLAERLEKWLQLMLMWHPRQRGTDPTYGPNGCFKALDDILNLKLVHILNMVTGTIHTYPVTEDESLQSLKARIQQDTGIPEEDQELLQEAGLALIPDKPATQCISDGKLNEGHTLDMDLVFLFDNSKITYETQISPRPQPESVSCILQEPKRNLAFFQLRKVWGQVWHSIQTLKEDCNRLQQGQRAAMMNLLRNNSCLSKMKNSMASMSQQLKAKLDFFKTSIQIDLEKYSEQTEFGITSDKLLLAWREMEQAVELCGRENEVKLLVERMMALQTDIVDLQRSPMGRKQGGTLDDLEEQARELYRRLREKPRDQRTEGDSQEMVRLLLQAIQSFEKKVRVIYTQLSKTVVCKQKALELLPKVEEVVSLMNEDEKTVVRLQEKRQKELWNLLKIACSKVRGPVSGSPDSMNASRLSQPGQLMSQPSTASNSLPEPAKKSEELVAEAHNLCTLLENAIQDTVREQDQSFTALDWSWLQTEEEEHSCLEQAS

The target of another test is T3, SAPK3 (h) (human) (UniProt P53778).
T3 sequence (looked up): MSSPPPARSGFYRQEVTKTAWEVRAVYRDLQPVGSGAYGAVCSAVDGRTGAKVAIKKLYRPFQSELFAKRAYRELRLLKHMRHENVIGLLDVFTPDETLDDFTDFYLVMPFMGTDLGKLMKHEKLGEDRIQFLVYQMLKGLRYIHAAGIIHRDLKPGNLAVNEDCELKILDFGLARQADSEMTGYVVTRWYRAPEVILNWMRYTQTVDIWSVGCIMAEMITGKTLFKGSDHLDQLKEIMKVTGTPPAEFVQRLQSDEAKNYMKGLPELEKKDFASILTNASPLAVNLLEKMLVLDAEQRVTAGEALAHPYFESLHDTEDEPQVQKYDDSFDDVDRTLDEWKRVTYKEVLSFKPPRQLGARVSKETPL

The target of test [2] is T4, Tec (h) activated (human) (UniProt P42680).
T4 sequence (looked up): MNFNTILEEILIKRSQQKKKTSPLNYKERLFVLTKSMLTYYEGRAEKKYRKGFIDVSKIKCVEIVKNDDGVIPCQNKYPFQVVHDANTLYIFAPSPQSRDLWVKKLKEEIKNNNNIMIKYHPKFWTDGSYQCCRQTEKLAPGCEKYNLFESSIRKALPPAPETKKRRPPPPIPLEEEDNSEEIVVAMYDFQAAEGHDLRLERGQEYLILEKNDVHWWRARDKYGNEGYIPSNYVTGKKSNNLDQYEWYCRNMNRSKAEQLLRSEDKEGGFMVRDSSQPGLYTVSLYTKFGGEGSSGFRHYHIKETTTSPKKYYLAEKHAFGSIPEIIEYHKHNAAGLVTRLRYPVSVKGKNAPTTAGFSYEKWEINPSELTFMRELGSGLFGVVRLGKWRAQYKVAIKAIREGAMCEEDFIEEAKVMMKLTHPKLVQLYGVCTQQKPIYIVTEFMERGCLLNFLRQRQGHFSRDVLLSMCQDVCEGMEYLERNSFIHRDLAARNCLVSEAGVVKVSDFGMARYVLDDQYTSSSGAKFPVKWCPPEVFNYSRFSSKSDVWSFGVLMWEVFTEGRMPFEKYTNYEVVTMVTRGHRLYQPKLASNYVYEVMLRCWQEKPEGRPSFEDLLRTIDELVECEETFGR

Chain of cKit(D816H) (h) (human) (P10721 544-976 D816H): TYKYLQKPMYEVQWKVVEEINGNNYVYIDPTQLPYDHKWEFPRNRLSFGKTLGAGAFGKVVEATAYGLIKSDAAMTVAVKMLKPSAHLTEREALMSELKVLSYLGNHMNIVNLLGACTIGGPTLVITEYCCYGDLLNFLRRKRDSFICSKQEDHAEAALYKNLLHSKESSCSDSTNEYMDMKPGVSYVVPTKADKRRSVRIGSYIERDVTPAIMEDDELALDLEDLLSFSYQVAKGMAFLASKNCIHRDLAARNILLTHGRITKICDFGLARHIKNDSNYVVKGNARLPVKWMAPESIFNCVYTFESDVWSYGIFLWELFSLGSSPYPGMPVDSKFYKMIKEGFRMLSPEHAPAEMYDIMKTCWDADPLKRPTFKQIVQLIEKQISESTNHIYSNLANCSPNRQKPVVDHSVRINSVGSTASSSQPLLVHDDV
Chain of MAPK2 (h) (human) (P28482 whole entry): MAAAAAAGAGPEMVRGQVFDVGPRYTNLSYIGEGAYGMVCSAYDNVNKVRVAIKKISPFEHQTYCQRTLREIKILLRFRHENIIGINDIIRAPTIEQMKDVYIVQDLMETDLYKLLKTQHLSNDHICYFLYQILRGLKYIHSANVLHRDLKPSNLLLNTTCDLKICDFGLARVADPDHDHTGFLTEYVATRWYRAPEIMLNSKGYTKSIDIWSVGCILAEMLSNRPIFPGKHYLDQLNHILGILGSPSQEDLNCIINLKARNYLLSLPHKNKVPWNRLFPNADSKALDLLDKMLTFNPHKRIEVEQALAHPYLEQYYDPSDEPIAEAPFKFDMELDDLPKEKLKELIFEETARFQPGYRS
Chain of PDGFRα (h) (human) (P16234 550-1089 limits assumed): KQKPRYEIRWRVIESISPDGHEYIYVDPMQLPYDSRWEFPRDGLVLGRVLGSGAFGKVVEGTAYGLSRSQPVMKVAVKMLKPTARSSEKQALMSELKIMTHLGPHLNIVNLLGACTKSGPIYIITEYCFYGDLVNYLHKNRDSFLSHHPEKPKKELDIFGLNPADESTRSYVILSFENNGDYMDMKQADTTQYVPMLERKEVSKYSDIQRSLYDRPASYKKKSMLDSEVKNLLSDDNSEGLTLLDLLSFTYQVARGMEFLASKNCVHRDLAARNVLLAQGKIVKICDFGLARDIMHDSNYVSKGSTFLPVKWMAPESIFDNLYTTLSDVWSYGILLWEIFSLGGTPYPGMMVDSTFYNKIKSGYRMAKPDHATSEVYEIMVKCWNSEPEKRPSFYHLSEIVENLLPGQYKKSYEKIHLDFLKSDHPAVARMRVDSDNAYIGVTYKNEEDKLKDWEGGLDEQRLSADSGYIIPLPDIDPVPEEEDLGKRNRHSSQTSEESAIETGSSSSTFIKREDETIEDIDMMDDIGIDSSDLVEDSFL

Regarding MMI-0300 (peptide), the % activity at 100 µM is 1% in test [1]; 93% with IKKα (h) (human); 84% in the test with IKKβ (h) (human); 98% with MAPK2 (h) (human); 48% with MINK (h) (human); 77% in the test with MSSK1 (h) (human). Moreover, the % activity at 100 µM with Met(D1246N) (h) (human) was 82%; with PDGFRα (h) (human) it was 65%; in the test with PKCδ (h) (human), 101%; with SAPK3 (h) (human) it was 84%; in test [2] it was 56%; with cKit(D816H) (h) (human), 126%.

(Values after patent US20160136234A1.)
